Laboratory results: publication PMC7112232, “Computational design of substrate selective inhibition” (PLoS Computational Biology, 2020)

Substrate: NC(=O)[C@@H]1CCCN1C(=O)[C@H](Cc1cnc[nH]1)NC(=O)[C@@H]1CCC(=O)N1
Experiment: RP-HPLC cleavage assay with purified rhPOP, Michaelis-Menten fit (Km)
Format: biochemical, Homo sapiens
Settings: occupies the S3-S1' sub-pockets

B1: Prolyl Oligopeptidase (POP) (Homo sapiens) (protein)
chain: MLSLQYPDVYRDETAVQDYHGHKICDPYAWLEDPDSEQTKAFVEAQNKITVPFLEQCPIRGLYKERMTELYDYPKYSCHFKKGKRYFYFYNTGLQNQRVLYVQDSLEGEARVFLDPNILSDDGTVALRGYAFSEDGEYFAYGLSASGSDWVTIKFMKVDGAKELPDVLERVKFSCMAWTHDGKGMFYNSYPQQDGKSDGTETSTNLHQKLYYHVLGTDQSEDILCAEFPDEPKWMGGAELSDDGRYVLLSIREGCDPVNRLWYCDLQQESSGIAGILKWVKLIDNFEGEYDYVTNEGTVFTFKTNRQSPNYRVINIDFRDPEESKWKVLVPEHEKDVLEWIACVRSNFLVLCYLHDVKNILQLHDLTTGALLKTFPLDVGSIVGYSGQKKDTEIFYQFTSFLSPGIIYHCDLTKEELEPRVFREVTVKGIDASDYQTVQIFYPSKDGTKIPMFIVHKKGIKLDGSHPAFLYGYGGFNISITPNYSVSRLIFVRHMGGILAVANIRGGGEYGETWHKGGILANKQNCFDDFQCAAEYLIKEGYTSPKRLTINGGSNGGLLVAACANQRPDLFGCVIAQVGVMDMLKFHKYTIGHAWTTDYGCSDSKQHFEWLVKYSPLHNVKLPEADDIQYPSMLLLTADHDDRVVPLHSLKFIATLQYIVGRSRKQSNPLLIHVDTKAGHGAGKPTAKVIEEVSDMFAFIARCLNVDWIP
notes: recombinant human POP (rhPOP), GST moiety removed
Km: 690 µM
